Source: patent publication US20150225704

Target: myc-tagged full-length palmitoyl acyl transferase zinc-finger DHHC type containing 17 (zD17) (UniProt Q8IUH5)
Sequence (Q8IUH5 whole entry): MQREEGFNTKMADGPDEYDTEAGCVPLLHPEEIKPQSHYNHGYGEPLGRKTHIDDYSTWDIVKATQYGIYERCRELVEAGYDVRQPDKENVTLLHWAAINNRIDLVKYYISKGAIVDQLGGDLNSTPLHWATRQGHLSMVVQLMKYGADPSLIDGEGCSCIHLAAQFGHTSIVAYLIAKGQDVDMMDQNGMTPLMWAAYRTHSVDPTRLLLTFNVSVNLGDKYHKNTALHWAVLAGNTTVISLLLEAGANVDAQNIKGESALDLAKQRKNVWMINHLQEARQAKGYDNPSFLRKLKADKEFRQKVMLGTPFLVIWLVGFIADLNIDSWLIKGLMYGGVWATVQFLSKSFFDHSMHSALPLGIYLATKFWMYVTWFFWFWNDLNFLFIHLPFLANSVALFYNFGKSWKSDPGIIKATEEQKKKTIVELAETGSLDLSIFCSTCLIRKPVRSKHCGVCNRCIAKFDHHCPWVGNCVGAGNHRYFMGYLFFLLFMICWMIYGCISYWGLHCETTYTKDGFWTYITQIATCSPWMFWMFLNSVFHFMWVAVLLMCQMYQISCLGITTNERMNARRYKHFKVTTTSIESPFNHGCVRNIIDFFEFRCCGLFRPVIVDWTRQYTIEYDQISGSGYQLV

**Q.** For FLAG-kiMKK7 (kinase-inactive MKK7), which JNK3 phosphorylation is on record?
**A.** Its JNK3 phosphorylation is “resulting in attenuated JNK3 phosphorylation”.
